{
  "source": "patent US20050064507",
  "key": {"[1]": {"tested_on": "T1, ADD2 peptide KKKFRTPSFLKKSKK (SEQ ID NO:95)", "T1 sequence": "KKKFRTPSFLKKSKK"}, "[2]": {"tested_on": "T2, ANK1 peptide AQIVKRASLKRGKQ (SEQ ID NO:90)", "T2 sequence": "AQIVKRASLKRGKQ"}, "[3]": {"tested_on": "T3, CACNA1C peptide RGFLRSASLGRRASFHLE (SEQ ID NO:96)", "T3 sequence": "RGFLRSASLGRRASFHLE"}, "[4]": {"tested_on": "T4, DGKZ peptide KKKKRASFKRKSSKKG (SEQ ID NO:77)", "T4 sequence": "KKKKRASFKRKSSKKG"}, "[5]": {"tested_on": "T5, GABA A receptor beta 2 peptide ERHVAQKKSRLRRRASQLKI (SEQ ID NO:142)", "T5 sequence": "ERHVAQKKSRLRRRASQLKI"}, "[6]": {"tested_on": "T6, HERG peptide TELEGGFSRQRKRKLSFRRR (SEQ ID NO:140)", "T6 sequence": "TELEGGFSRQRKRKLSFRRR"}, "[7]": {"tested_on": "T7, LIMK-2 peptide LRRRSLRRSNSISKSPGP (SEQ ID NO:121)", "T7 sequence": "LRRRSLRRSNSISKSPGP"}, "[8]": {"tested_on": "T8, LIMK2 peptide KATTKKRTLRKNDRK (SEQ ID NO:108)", "T8 sequence": "KATTKKRTLRKNDRK"}, "[9]": {"tested_on": "T9, MAP3K14 peptide WKGKRRSKARKKRK (SEQ ID NO:100)", "T9 sequence": "WKGKRRSKARKKRK"}, "[10]": {"tested_on": "T10, MLK3 peptide HVRRRRGTFKRSKLRARD (SEQ ID NO:76)", "T10 sequence": "HVRRRRGTFKRSKLRARD"}, "[11]": {"tested_on": "T11, NCF1 peptide GAPPRRSSIRNAH (SEQ ID NO:101)", "T11 sequence": "GAPPRRSSIRNAH"}, "[12]": {"tested_on": "T12, NMDAR1 peptide RAITSTLASSFKRRR (SEQ ID NO:122)", "T12 sequence": "RAITSTLASSFKRRR"}, "[13]": {"tested_on": "T13, NR4A3 peptide KEVVRTDSLKGRRGR (SEQ ID NO:109)", "T13 sequence": "KEVVRTDSLKGRRGR"}, "[14]": {"tested_on": "T14, PARIS1 peptide EYLERRASRRRAV (SEQ ID NO:89)", "T14 sequence": "EYLERRASRRRAV"}, "[15]": {"tested_on": "T15, PPP1R14A peptide QKRHARVTVKYDRRE (SEQ ID NO:107)", "T15 sequence": "QKRHARVTVKYDRRE"}, "[16]": {"tested_on": "T16, dag kinase zeta peptide KKKKRASFKRKSSKKG (SEQ ID NO:114)", "T16 sequence": "KKKKRASFKRKSSKKG"}, "[17]": {"tested_on": "T17, dag kinase zeta peptide RPQNTLKASKKKKRASFKRK (SEQ ID NO:118)", "T17 sequence": "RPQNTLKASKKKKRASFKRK"}, "[18]": {"tested_on": "T18, peptide AARKKRISVKKKQEQ (SEQ ID NO:8)", "T18 sequence": "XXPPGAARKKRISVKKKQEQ"}, "[19]": {"tested_on": "T19, peptide AQIVKRASLKRGKQ (SEQ ID NO:10)", "T19 sequence": "XXPPGAQIVKRASLKRGKQ"}, "[20]": {"tested_on": "T20, peptide ARIIGEKSFRRSVVG (SEQ ID NO:47)", "T20 sequence": "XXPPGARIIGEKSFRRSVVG"}, "[21]": {"tested_on": "T21, peptide AYIERMNSIHRDLRA (SEQ ID NO:37)", "T21 sequence": "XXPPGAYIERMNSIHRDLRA"}, "[22]": {"tested_on": "T22, peptide EGGDRRASGRRK (SEQ ID NO:34)", "T22 sequence": "XXPPGEGGDRRASGRRK"}, "[23]": {"tested_on": "T23, peptide EYLERRASRRRAV (SEQ ID NO:14)", "T23 sequence": "XXPPGEYLERRASRRRAV"}, "[24]": {"tested_on": "T24, peptide HVRRRRGTFKRSKLRARD (SEQ ID NO:1)", "T24 sequence": "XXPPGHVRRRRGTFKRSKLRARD"}, "[25]": {"tested_on": "T25, peptide IDYYKKTSNGRLPVK (SEQ ID NO:74)", "T25 sequence": "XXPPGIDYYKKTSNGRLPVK"}, "[26]": {"tested_on": "T26, peptide IKVTHKATGKVMVMK (SEQ ID NO:65)", "T26 sequence": "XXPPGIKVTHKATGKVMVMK"}, "[27]": {"tested_on": "T27, peptide KEVVRTDSLKGRRGR (SEQ ID NO:30)", "T27 sequence": "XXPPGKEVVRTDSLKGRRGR"}, "[28]": {"tested_on": "T28, peptide KKKFRTPSFLKKSKK (SEQ ID NO:11)", "T28 sequence": "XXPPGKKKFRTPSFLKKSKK"}, "[29]": {"tested_on": "T29, peptide KKRFSFKKSFKLSGFSFKKN (SEQ ID NO:18)", "T29 sequence": "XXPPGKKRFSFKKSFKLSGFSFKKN"}, "[30]": {"tested_on": "T30, peptide KLAVGRHSFSRRSGV (SEQ ID NO:21)", "T30 sequence": "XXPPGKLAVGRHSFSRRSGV"}, "[31]": {"tested_on": "T31, peptide KNVVKLLSSRRTQDR (SEQ ID NO:57)", "T31 sequence": "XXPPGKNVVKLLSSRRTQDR"}, "[32]": {"tested_on": "T32, peptide LLGSGKVTDRKAL (SEQ ID NO:39)", "T32 sequence": "XXPPGLLGSGKVTDRKAL"}, "[33]": {"tested_on": "T33, peptide LTDPKEDPIYDEPEGLAPVPG (SEQ ID NO:72)", "T33 sequence": "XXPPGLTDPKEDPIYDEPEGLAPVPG"}, "[34]": {"tested_on": "T34, peptide NMEAKKLSKDRMKKY (SEQ ID NO:40)", "T34 sequence": "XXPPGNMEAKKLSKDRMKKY"}, "[35]": {"tested_on": "T35, peptide QKRHARVTVKYDRRE (SEQ ID NO:23)", "T35 sequence": "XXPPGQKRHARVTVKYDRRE"}, "[36]": {"tested_on": "T36, peptide QQKIRKYTMRRLLQE (SEQ ID NO:33)", "T36 sequence": "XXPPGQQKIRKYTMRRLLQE"}, "[37]": {"tested_on": "T37, peptide RKKRKKKSSKSLAHAGVALA (SEQ ID NO:31)", "T37 sequence": "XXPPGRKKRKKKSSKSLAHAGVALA"}, "[38]": {"tested_on": "T38, peptide RQRKRKLSFRRRTDKD (SEQ ID NO:5)", "T38 sequence": "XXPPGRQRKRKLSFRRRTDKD"}, "[39]": {"tested_on": "T39, phospholemman peptide EEGTFRSSIRRLSTRRR (SEQ ID NO:116)", "T39 sequence": "EEGTFRSSIRRLSTRRR"}, "[40]": {"tested_on": "T40, pkc-zeta peptide GLPAPGEDKSIYRRGSRRWR (SEQ ID NO:167)", "T40 sequence": "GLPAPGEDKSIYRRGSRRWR"}, "[41]": {"tested_on": "T41, slp4 peptide TYLLPDKSRQGKRKTSIKRD (SEQ ID NO:153)", "T41 sequence": "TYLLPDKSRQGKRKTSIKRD"}, "[42]": {"tested_on": "T42, splicing factor, arginine/serine-rich 4 peptide RSRSRSRSKSKDKRKSRKRS (SEQ ID NO:134)", "T42 sequence": "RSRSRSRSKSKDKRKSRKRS"}},
  "data": [
    {"substance": "PKC-delta", "values": [
      {"measurement": "in vitro phosphorylation (% of best substrate)", "setting": "[1]", "result": 25},
      {"measurement": "in vitro phosphorylation (% of best substrate)", "setting": "[2]", "result": 32},
      {"measurement": "in vitro phosphorylation (% of best substrate)", "setting": "[3]", "result": 18},
      {"measurement": "in vitro phosphorylation (% of best substrate)", "setting": "[4]", "result": 76},
      {"measurement": "in vitro phosphorylation, 1 uM peptide (% of best substrate)", "setting": "[5]", "result": 30},
      {"measurement": "in vitro phosphorylation, 10 uM peptide (% of best substrate)", "setting": "[5]", "result": 36},
      {"measurement": "in vitro phosphorylation, 1 uM peptide (% of best substrate)", "setting": "[6]", "result": 44},
      {"measurement": "in vitro phosphorylation, 10 uM peptide (% of best substrate)", "setting": "[6]", "result": 49},
      {"measurement": "in vitro phosphorylation, 1 uM peptide (% of best substrate)", "setting": "[7]", "result": 80},
      {"measurement": "in vitro phosphorylation, 10 uM peptide (% of best substrate)", "setting": "[7]", "result": 53},
      {"measurement": "in vitro phosphorylation (% of best substrate)", "setting": "[8]", "result": 6},
      {"measurement": "in vitro phosphorylation (% of best substrate)", "setting": "[9]", "result": 22},
      {"measurement": "in vitro phosphorylation (% of best substrate)", "setting": "[10]", "result": 100},
      {"measurement": "in vitro phosphorylation (% of best substrate)", "setting": "[11]", "result": 13},
      {"measurement": "in vitro phosphorylation, 1 uM peptide (% of best substrate)", "setting": "[12]", "result": 55},
      {"measurement": "in vitro phosphorylation, 10 uM peptide (% of best substrate)", "setting": "[12]", "result": 24},
      {"measurement": "in vitro phosphorylation (% of best substrate)", "setting": "[13]", "result": 7},
      {"measurement": "in vitro phosphorylation (% of best substrate)", "setting": "[14]", "result": 20},
      {"measurement": "in vitro phosphorylation (% of best substrate)", "setting": "[15]", "result": 10},
      {"measurement": "in vitro phosphorylation, 1 uM peptide (% of best substrate)", "setting": "[16]", "result": 80},
      {"measurement": "in vitro phosphorylation, 10 uM peptide (% of best substrate)", "setting": "[16]", "result": 100},
      {"measurement": "in vitro phosphorylation, 1 uM peptide (% of best substrate)", "setting": "[17]", "result": 73},
      {"measurement": "in vitro phosphorylation, 10 uM peptide (% of best substrate)", "setting": "[17]", "result": 60},
      {"measurement": "in vitro phosphorylation (% of best substrate)", "setting": "[18]", "result": 35},
      {"measurement": "in vitro phosphorylation (% of best substrate)", "setting": "[19]", "result": 32},
      {"measurement": "in vitro phosphorylation (% of best substrate)", "setting": "[20]", "result": 2},
      {"measurement": "in vitro phosphorylation (% of best substrate)", "setting": "[21]", "result": 3},
      {"measurement": "in vitro phosphorylation (% of best substrate)", "setting": "[22]", "result": 5},
      {"measurement": "in vitro phosphorylation (% of best substrate)", "setting": "[23]", "result": 20},
      {"measurement": "in vitro phosphorylation (% of best substrate)", "setting": "[24]", "result": 100},
      {"measurement": "in vitro phosphorylation (% of best substrate)", "setting": "[25]", "result": 0},
      {"measurement": "in vitro phosphorylation (% of best substrate)", "setting": "[26]", "result": 1},
      {"measurement": "in vitro phosphorylation (% of best substrate)", "setting": "[27]", "result": 7},
      {"measurement": "in vitro phosphorylation (% of best substrate)", "setting": "[28]", "result": 25},
      {"measurement": "in vitro phosphorylation (% of best substrate)", "setting": "[29]", "result": 16},
      {"measurement": "in vitro phosphorylation (% of best substrate)", "setting": "[30]", "result": 12},
      {"measurement": "in vitro phosphorylation (% of best substrate)", "setting": "[31]", "result": 2},
      {"measurement": "in vitro phosphorylation (% of best substrate)", "setting": "[32]", "result": 3},
      {"measurement": "in vitro phosphorylation (% of best substrate)", "setting": "[33]", "result": 0},
      {"measurement": "in vitro phosphorylation (% of best substrate)", "setting": "[34]", "result": 3},
      {"measurement": "in vitro phosphorylation (% of best substrate)", "setting": "[35]", "result": 10},
      {"measurement": "in vitro phosphorylation (% of best substrate)", "setting": "[36]", "result": "> 5"},
      {"measurement": "in vitro phosphorylation (% of best substrate)", "setting": "[37]", "result": "> 5"},
      {"measurement": "in vitro phosphorylation (% of best substrate)", "setting": "[38]", "result": 42},
      {"measurement": "in vitro phosphorylation, 1 uM peptide (% of best substrate)", "setting": "[39]", "result": 75},
      {"measurement": "in vitro phosphorylation, 10 uM peptide (% of best substrate)", "setting": "[39]", "result": 41},
      {"measurement": "in vitro phosphorylation, 1 uM peptide (% of best substrate)", "setting": "[40]", "result": 13},
      {"measurement": "in vitro phosphorylation, 10 uM peptide (% of best substrate)", "setting": "[40]", "result": 24},
      {"measurement": "in vitro phosphorylation, 1 uM peptide (% of best substrate)", "setting": "[41]", "result": 32},
      {"measurement": "in vitro phosphorylation, 10 uM peptide (% of best substrate)", "setting": "[41]", "result": 26},
      {"measurement": "in vitro phosphorylation, 1 uM peptide (% of best substrate)", "setting": "[42]", "result": 44},
      {"measurement": "in vitro phosphorylation, 10 uM peptide (% of best substrate)", "setting": "[42]", "result": 16}
    ]}
  ]
}
